In US20250002563A1 (UNIVERSITY OF PITTSBURGH OF THE COMMONWEALTH SYSTEM OF …, published 2025):

B1: 4P-32 (VHH)
VHH: DVQLVESGGGLVQAGGSLRLTCAASGRTFSSDTMDMGWFRQAPGKERQFVAADAWNDGRTYYADSVKGRFTISRDNAKNTLYLQMNSLKPEDTAVYYCAADTYSNYEKDYSWGYWGQGTQVTVSS
B2: 4P-3 (VHH)
VHH: DVQLVESGGGLVQAGDSLRLSCAASGRTFGNYVLDWFRQAPGKEREFVASITQTGFGTYYADAVKGRFTISRDNAKNTMYLQMNSLKPEDTAVYYCAADFTAQNGGIRNPTYWGQGTQVTVSS
B3: 4P-5 (VHH)
VHH: DVQLVESGGGLVQAGGSLRLSCAASGRTFGNYVLDWFRQAPGKEREFVASITQTGFGTYYADAVKGRFTISRDNAKNTMYLQMNSLKPEDTAVYYCAADFTVQNGGIRNPTYWGQGTQVTVSS
B4: 4P-4 (VHH)
VHH: DVQLVESGGGLVQAGDSLRLSCAASGRTFGNYVLDWFRQAPGKEREFVASITQTGFGTYYADAVKGRFTISRDNAKNTMYLQMNSLKPEDTAVYYCAADFTAQNRGIRIPRYWGQGTQVTVSS
B5: 4P-28 (VHH)
VHH: QVQLVESGGGLVQAGGSLRLSCAASGRTFSHYPTGWFRQAPGKEREFVSTISESGTSTYYADSVKGRFTISRDNAKNSVYLQMNSLKPEDTALYYCAADTAGRTQYGSSWSTLDGFVYWGQGTQVTVSS
B6: 4P-56 (VHH)
VHH: QVQLVESGGGLVQAGGSLRLSCAASGRTDSISDMGWFRQAPGKEREFVAVVGWSGGGTDYAHSVKGRFTISRDNAKNTVYLQMNSLKPEDTAVYYCAVGSLRVGSFSVEYWGQGTQVTVSS
notes: class IV psNb
B7: 5p-162 (VHH)
VHH: DVQLVESGGGFVQAGGSLRLSCADSGLTRSVWPMGWFRQAPGKEREFVAGIAWSGERQSYADFVKGRFTVSRDNARNTVYLQMNSLKPEDTAVYYCAAPTSGVFGRTYAPTATSSYDSWGQGTQVTVSS
B8: 5p-171 (VHH)
VHH: QVQLVESGGGLVQTGGSLRLSCAASGRTFSTYTMGWFRQAPGKEREFVAAITPTGYGTKSADSVKGRFIISRDNPKNTVYLQMNNLKPEDTAVYYCAARSGTITNQDQYDFHYWGQGTQVTVSS
B9: 4P-26 (VHH)
VHH: QVQLVESGGGLVQAGGSLRLSCAASGDTLRSYNMGWFRQAPGKEREFVAVISWTGVGTYYGDSVKGRFTISRDVIKNTLYLQMDSLKPEDTAIYYCAADSTTYRLHSAGSDYLYWGQGTQVTVSS
B10: 4P-61 (VHH)
VHH: QVQLVESGGGLVQAGGSLRLSCAASGSTFNTRNIAWYRQAPGKQRELVAGITNAGATIYADSVKGRFTISRDNAKNTMYLQIDSLKPEDTAVYYCNRIVGTYPWGQGTQVTVSS
B11: 5p-16 (VHH)
VHH: DVQLVESGGGLVQAGGSLRLSCLASGRTFSNYAMAWFRQSPGKEREFVAVITSGRSTDYADSVKGRFTISRDNAKNTVYLQMNSLKPEDTAVYYCAADQAPLRFSYSLSRDKYDYWGQGTQVTVSS
B12: 4P-12 (VHH)
VHH: DVQLVESGGGLVQAGGSLRLSCAASGRTFSSYTMGWFRQAPGKEREFVAVISSGRSTDYADSVKGRFTISRDNAKNTVYLQMNSLKPEDTAVYYCAADQAPLRFSYSLSRDEYDYWGQGTQVTVSS
B13: 5p-17 (VHH)
VHH: QVQLVESGGGLVQAGGSLRVSCAASGRSFSDYAMAWFRQSPGKEREFVAVITSGRSTDYADSVKGRFTISRDNAKNTVYLQMNSLKPEDTAVYYCAADQTPLRFSYSLSRDKYDYWGQGTQVTVSS
B14: 4P-21 (VHH)
VHH: HVQLVESGGGLAQAGGNLRLSCAASGGTFSDYAMGWFRRPPGKEREFVAAISRGGSTFYADSVKGRFTISRDNAKNTVYLQMTSLKPEDTAVYYCAADRSPLFFGVPRSHGEYDYWGQGTQVTVSS
B15: 5p-174 (VHH)
VHH: HVQLVESGGGLVQTGASLRLSCKASGRTFSTYTISWFRQAPGKEREFVGGVATSGGTTYYGDSVQGRFTISRDNAKNEVYLQMNSVKPEDTAVYICAARSVIQDTVVISNPIHFEYWGQGTQVTVSS
B16: 5p-168 (VHH)
VHH: DVQLVESGGGLVQAGASLRLSCVVSGVTFSTYGMAWFRQAPEKQRTFVATITREDTTFYADSVKGRFTISRDNAKNTVYLQMNSLKLEDTAVYYCAVRRDSSWGYSRDLFEYDDWGQGTQVTVSS
B17: 5p-176 (VHH)
VHH: EVQLVESGGRLVQAGGSLRLSCAASGRTFSTYTMAWFRQAPGKEREFVAGIARNGDTAYYSDSVKGRFTISRDNAKNEVSLQMNSLKPEDTAVYTCAARSVVQLEVVLNNPIHFEYWGQGTQVTVSS
B18: 5p-164 (VHH)
VHH: DVQLVESGGGLVKTGDSLRLSCAVSGGTFGSYGMAWFRQAPGKEREIVASIGRTGRTTDYADSVKGRFSIARDNAKNTVYLQMNNLKPEDTAVYYCAARIFSLNYALIGRDTNINYWGQGTQVTVSS
B19: 5p-10 (VHH)
VHH: QVQLVESGGGLVQAGGSLRLSCAASGRTFSSSAMGWFRQAPGKDREFVAAISPSSTNTGYTDSVKGRFTISRDNTKNTVDLQMNNLKPEDTAIYYCAADANSLRYGYSQNQGRYEYWGQGTQVTVSS
B20: 4P-84 (VHH)
VHH: HVQLVESGGGLVQAGGSLRLSCAVSGRTVSTYGMGWFRQAPGKERDFVATITRSGGTTLYADSVKGRFTISRDNAKNTVYLQMNSLKIEDTAVYYCAVRRDSSFGYSRDSFEYDDWGQGTQVTVSS
B21: 4P-86 (VHH)
VHH: DVQLVESGGGLVQAGGSLRLSCAVSGRTVSTYGMAWFRQAPGKEREFVATITRSEGTTFYADSVKGRFTISRDNAKNTVYLQMNSLKIEDTAVYYCAVRRDSSWGYSRDSFEYDDWGQGTQVTVSS
B22: 5p-169 (VHH)
VHH: DVQLVESGGGLVQAGGSLRLSCLVSGLTFSTYGMGWFRQAPGKEREFVAQITRSGSPTLYADSVKGRFTISRDNAKNTMYLQMNSLKIEDTAVYYCAVRRDSSWGYSRDSFEYDYWGQGTQVTVSS
B23: 4P-10 (VHH)
VHH: HVQLVESGGGLVQAGDSLRLSCTASGRTFSAYGMGWFRQAPGKEREFVAGIARSGSEYYGDSVKGRFTISRDNAKNTVYLQMASLKAEDTGVYYCAADPTILYHAISQRTQNYRYWGPGTQVTVSS
B24: 4P-9 (VHH)
VHH: QVQLVESGGGLVQAGDSLRLSCTASGRTFSAYGMGWFRQAPGKEREFVAGIARSGSEYYGDSVKGRFTISRDNAKNTVYLQMASLKAEDTGVYYCAADPTILYHAISQRTQNYRHWGPGTQVTVSS
B25: 5p-24 (VHH)
VHH: DVQLVESGGGLVQAGDSLRLSCTASGLTFSAYGMGWFRQAPGKEREFVAGIARSGSEFYGDSVKGRFTISRDNAKNTVYLQVNSLRPEDTALYYCAADRTILYHAISQRTQNYQYWGPGTQVTVSS
B26: 5p-6 (VHH)
VHH: DVQLVESGGGLVQAGGSLRLSCAASGSTFSGNAIGWYRQAPGKQRELVATINAPGSTDYAESVKGRFTISRDNAKNTVFLQMNSLKPEDTAVYYCNVCKFLLSVLCHPGQDYWGQGTQVTVSS
B27: 4P-19 (VHH)
VHH: HVQLVESGGGLVQAGGSLRLSCAASGRTVSSEFMGWFRQAPGKEREFVAAITWDGGSTYYTDSVKGRFTISRDNAKNTVYLQMNSLKPEDTAVYYCAADRSIFQSYYSAKYPNNYEYWGQGTQVTVSS
B28: 5p-180 (VHH)
VHH: QVQLVESGGGLVQAGGSLRLSCVASGTISTLNAMGWYRQAPGKQRELLTSISNLGTTYSADSVKGRFTISRGNAKNTVYLQMDSLKPDDTAVYYCNTRVLEGTEYRDYWGQGTQVTVSS
B29: 5p-179 (VHH)
VHH: HVQLVESGGGLVQAGGSLRLSCAASGTISTLNAMGWYRQAPGKQRELLASISNLGTTYHADSVAGRFTISRGSAKNTVNLQMNSLKPDDTAVYYCNTRVLEGGTQIRDYWGQGTQVTVSS
notes: class IV psNb
B30: 4P-17 (VHH)
VHH: HVQLVESGGGLVQAGASLRLSCAASGRTASNYVMGWFRQAAGKEREFVAHISWSGDETNYADSVRGRFIISRDNAENTVYLQMNSLKPEDTAVYYCAADRGYSLMYYSSREYTYWGQGTQVTVSS

Key:
[1] = biological target: RBDSARS-CoV-2 (SARS-CoV-2 S protein residues 319-539, C-terminal His-tag) (SARS-CoV-2, UniProt P0DTC2 319-539); test: ELISA
[2] = biological target: RBDSARS-CoV (SARS-CoV S protein residues 318-510, C-terminal His-tag) (SARS-CoV, UniProt P59594 318-510); test: ELISA

Row | Binder | IC50 [1] [nM] | IC50 [2] [nM]
1 | B1 | < 10 | 1000 to 8000
2 | B2 | 10 to 100 | 1000 to 8000
3 | B3 | 10 to 100 | 100 to 1000
4 | B4 | 10 to 100 | 100 to 1000
5 | B5 | 10 to 100 | 1000 to 8000
6 | B6 | < 10 | 10 to 100
7 | B7 | 10 to 100 | 10 to 100
8 | B8 | < 10 | 10 to 100
9 | B9 | < 10 | > 8000
10 | B10 | < 10 | 10 to 100
11 | B11 | < 10 | 10 to 100
12 | B12 | < 10 | 10 to 100
13 | B13 | < 10 | < 10
14 | B14 | < 10 | < 10
15 | B15 | < 10 | < 10
16 | B16 | < 10 | < 10
17 | B17 | < 10 | < 10
18 | B18 | < 10 | 10 to 100
19 | B19 | < 10 | 10 to 100
20 | B20 | < 10 | < 10
21 | B21 | < 10 | < 10
22 | B22 | < 10 | < 10
23 | B23 | < 10 | 100 to 1000
24 | B24 | < 10 | 100 to 1000
25 | B25 | < 10 | < 10
26 | B26 | < 10 | 10 to 100
27 | B27 | < 10 | 100 to 1000
28 | B28 | < 10 | > 8000
29 | B29 | < 10 | > 8000
30 | B30 | < 10 | 1000 to 8000
